Kd data for two substances are collected here from paper PMC4427307.

By pKd is commonly meant the Kd on a negative log10 scale, so that one unit is a factor of ten. Lower therefore signals a large Kd.

The target in this assay is human insulin (human). Put plainly: BLI; Octet Red, 96-well microplates, 25°C; biotinylated human insulin (12.5-50 μg/ml) immobilised on Streptavidin Biosensors; rSjLD1 (3.5-56 μg/ml) or rSjLD2 (1.78-56 μg/ml) in solution; kinetic buffer (1mM phosphate, 15mM NaCl, 0.1mg/ml BSA, 0.002% Tween-20); association 1000 s, dissociation …; double reference subtraction (BSA negative control and sensor).

pKd: −log10 of the molar value.

“recombinant L1 subdomain of Schistosoma japonicum insulin receptor 2 (SjLD2), expressed in Drosophila S2 cells (domain or fragment)” had a pKd of 8.06. In turn, “recombinant L1 subdomain of Schistosoma japonicum insulin receptor 1 (SjLD1), expressed in Drosophila S2 cells (domain or fragment)” had a pKd of 7.19.
